T1: Bbc1, P47068
T1 sequence (P47068 1-78, looked up): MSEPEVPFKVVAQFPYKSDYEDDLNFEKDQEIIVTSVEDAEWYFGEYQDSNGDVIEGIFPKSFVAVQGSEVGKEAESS

T2: Pex13, P80667
T2 sequence (P80667 295-386, looked up): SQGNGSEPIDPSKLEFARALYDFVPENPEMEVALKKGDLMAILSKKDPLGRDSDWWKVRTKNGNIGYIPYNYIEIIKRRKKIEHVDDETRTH

T3: Nbp2, Q12163
T3 sequence (Q12163 103-180, looked up): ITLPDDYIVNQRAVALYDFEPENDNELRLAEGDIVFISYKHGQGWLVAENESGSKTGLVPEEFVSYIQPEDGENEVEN

T4: Bud14, P27637
T4 sequence (P27637 247-328, looked up): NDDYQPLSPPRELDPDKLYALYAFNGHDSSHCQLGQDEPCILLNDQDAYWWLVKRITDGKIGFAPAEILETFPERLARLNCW

T5: Lsb1, P53281
T5 sequence (P53281 45-122, looked up): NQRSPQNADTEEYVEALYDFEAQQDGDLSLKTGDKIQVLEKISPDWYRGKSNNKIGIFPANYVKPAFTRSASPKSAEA

T6: Sla1-3, P32790
T6 sequence (P32790 344-424, looked up): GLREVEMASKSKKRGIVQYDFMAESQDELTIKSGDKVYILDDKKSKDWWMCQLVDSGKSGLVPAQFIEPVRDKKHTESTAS

T7: Pin3, Q06449
T7 sequence (Q06449 53-122, looked up): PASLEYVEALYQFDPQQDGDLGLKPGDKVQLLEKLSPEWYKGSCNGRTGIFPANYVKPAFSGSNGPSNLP

T8: Sla1-2, P32790
T8 sequence (P32790 60-140, looked up): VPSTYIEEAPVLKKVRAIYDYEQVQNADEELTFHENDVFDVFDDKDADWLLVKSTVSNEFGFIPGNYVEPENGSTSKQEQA

T9: Bzz1-2, P38822
T9 sequence (P38822 568-633, looked up): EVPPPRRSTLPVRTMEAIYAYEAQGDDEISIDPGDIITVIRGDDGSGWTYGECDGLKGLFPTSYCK

T10: Cyk3, Q07533
T10 sequence (Q07533 1-83, looked up): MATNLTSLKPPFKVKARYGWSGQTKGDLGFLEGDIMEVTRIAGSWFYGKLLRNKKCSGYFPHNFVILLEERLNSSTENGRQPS

T11: Boi2, P39969
T11 sequence (P39969 32-116, looked up): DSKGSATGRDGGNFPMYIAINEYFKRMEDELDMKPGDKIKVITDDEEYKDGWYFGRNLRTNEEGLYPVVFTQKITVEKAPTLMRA

T12: Fus1, P11710
T12 sequence (P11710 432-512, looked up): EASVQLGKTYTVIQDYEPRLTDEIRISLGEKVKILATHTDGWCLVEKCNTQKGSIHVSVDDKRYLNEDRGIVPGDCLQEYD

T13: Abp1, P15891
T13 sequence (P15891 535-592, looked up): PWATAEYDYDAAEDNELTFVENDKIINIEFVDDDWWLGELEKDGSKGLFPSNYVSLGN

T14: Lsb3, P43603
T14 sequence (P43603 385-451, looked up): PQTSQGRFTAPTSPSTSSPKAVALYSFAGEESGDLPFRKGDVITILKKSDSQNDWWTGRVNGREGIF

T15: Myo5, Q04439
T15 sequence (Q04439 1072-1160, looked up): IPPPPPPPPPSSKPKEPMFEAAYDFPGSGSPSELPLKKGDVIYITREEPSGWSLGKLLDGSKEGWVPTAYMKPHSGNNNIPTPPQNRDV

T16: Hse1, P38753
T16 sequence (P38753 208-285, looked up): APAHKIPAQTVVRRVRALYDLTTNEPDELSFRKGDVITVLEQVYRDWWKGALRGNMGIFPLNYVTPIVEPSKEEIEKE

T17: Cdc25, P04821
T17 sequence (P04821 50-136, looked up): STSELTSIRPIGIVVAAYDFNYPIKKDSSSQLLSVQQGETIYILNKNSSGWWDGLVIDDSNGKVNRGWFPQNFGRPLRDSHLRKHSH

T18: Lsb4, P32793
T18 sequence (P32793 402-468, looked up): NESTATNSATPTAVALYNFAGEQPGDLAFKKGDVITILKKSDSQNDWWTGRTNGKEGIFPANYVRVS

T19: Bzz1-1, P38822
T19 sequence (P38822 478-572, looked up): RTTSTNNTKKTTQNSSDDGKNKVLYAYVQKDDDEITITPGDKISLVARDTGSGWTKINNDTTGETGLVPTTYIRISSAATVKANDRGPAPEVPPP

T20: Hof1, Q05080
T20 sequence (Q05080 590-669, looked up): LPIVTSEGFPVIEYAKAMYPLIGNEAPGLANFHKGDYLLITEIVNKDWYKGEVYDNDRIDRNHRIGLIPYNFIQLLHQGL

T21: Boi1, P38041
T21 sequence (P38041 1-86, looked up): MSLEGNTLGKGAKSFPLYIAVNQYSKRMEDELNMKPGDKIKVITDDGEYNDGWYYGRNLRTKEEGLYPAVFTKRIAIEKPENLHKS

B1: unnamed (peptide)
chain: KTKQQKPAIPQKKSF
B2: unnamed (peptide)
chain: KKEKKPPKIPKKVYT
B3: unnamed (peptide)
chain: MTKTPETSPPKRPMG
B4: unnamed (peptide)
chain: NLKKRPPTAPQRKIS
B5: unnamed (peptide)
chain: AAHKTKPSIPPKKVE
B6: unnamed (peptide)
chain: QTREPNEPPPPSPAM

biological target: T1, Bbc1, P47068; experiment: SPOT array; conditions: median of control spots 796

SPOT intensity | Binder
1 | B1
0 | B2
0 | B3
31 | B4
0 | B5
0 | B6

biological target: T2, Pex13, P80667; experiment: SPOT array; conditions: median of control spots 1341

SPOT intensity | Binder
5 | B1
0 | B2
8 | B3
13 | B4
2 | B5
7 | B6

biological target: T3, Nbp2, Q12163; experiment: SPOT array; conditions: median of control spots 357

SPOT intensity | Binder
0 | B1
0 | B2
0 | B3
48 | B4
0 | B5
0 | B6

biological target: T4, Bud14, P27637; experiment: SPOT array; conditions: median of control spots 956

SPOT intensity | Binder
0 | B1
0 | B2
0 | B3
25 | B4
0 | B5
0 | B6

biological target: T5, Lsb1, P53281; experiment: SPOT array; conditions: median of control spots 388

SPOT intensity | Binder
0 | B1
0 | B2
3 | B3
8 | B4
0 | B5
0 | B6

biological target: T6, Sla1-3, P32790; experiment: SPOT array; conditions: median of control spots 5475

SPOT intensity | Binder
0 | B1
12 | B2
0 | B3
161 | B4
0 | B5
0 | B6

biological target: T7, Pin3, Q06449; experiment: SPOT array; conditions: median of control spots 2171

SPOT intensity | Binder
3 | B1
1 | B2
24 | B3
7 | B4
0 | B5
21 | B6

biological target: Myo3, P36006; experiment: SPOT array; conditions: median of control spots 468

SPOT intensity | Binder
2 | B1
0 | B2
455 | B3
20 | B4
0 | B5
502 | B6

biological target: GST; experiment: SPOT array; conditions: median of control spots 978

SPOT intensity | Binder
1 | B1
3 | B2
0 | B3
2 | B4
0 | B5
0 | B6

biological target: T8, Sla1-2, P32790; experiment: SPOT array; conditions: median of control spots 712

SPOT intensity | Binder
0 | B1
0 | B2
2 | B3
3 | B4
0 | B5
0 | B6

biological target: Sho1, P40073; experiment: SPOT array; conditions: median of control spots 1148
Sequence (P40073 287-367): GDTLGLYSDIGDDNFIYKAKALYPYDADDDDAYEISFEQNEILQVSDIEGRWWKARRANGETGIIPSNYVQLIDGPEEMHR

SPOT intensity | Binder
38 | B1
16 | B2
5 | B3
229 | B4
4 | B5
0 | B6

biological target: T9, Bzz1-2, P38822; experiment: SPOT array; conditions: median of control spots 4538

SPOT intensity | Binder
9 | B1
18 | B2
4 | B3
324 | B4
0 | B5
0 | B6

biological target: T10, Cyk3, Q07533; experiment: SPOT array; conditions: median of control spots 1451

SPOT intensity | Binder
0 | B1
1 | B2
0 | B3
2 | B4
0 | B5
1 | B6

biological target: T11, Boi2, P39969; experiment: SPOT array; conditions: median of control spots 1161

SPOT intensity | Binder
0 | B1
3 | B2
0 | B3
0 | B4
1 | B5
3 | B6

biological target: T12, Fus1, P11710; experiment: SPOT array; conditions: median of control spots 1200

SPOT intensity | Binder
0 | B1
3 | B2
0 | B3
8 | B4
1 | B5
0 | B6

biological target: Bem1-2, P29366; experiment: SPOT array; conditions: median of control spots 4347
Sequence (P29366 139-227): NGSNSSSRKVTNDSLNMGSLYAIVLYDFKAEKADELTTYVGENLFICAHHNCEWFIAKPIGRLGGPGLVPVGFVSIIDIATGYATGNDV

SPOT intensity | Binder
5 | B1
4 | B2
3 | B3
51 | B4
0 | B5
0 | B6

biological target: T13, Abp1, P15891; experiment: SPOT array; conditions: median of control spots 935

SPOT intensity | Binder
617 | B1
161 | B2
75 | B3
564 | B4
239 | B5
7 | B6

biological target: T14, Lsb3, P43603; experiment: SPOT array; conditions: median of control spots 406

SPOT intensity | Binder
4 | B1
0 | B2
34 | B3
45 | B4
0 | B5
2 | B6

biological target: T15, Myo5, Q04439; experiment: SPOT array; conditions: median of control spots 471

SPOT intensity | Binder
1 | B1
0 | B2
499 | B3
3 | B4
0 | B5
515 | B6

biological target: T16, Hse1, P38753; experiment: SPOT array; conditions: median of control spots 1727

SPOT intensity | Binder
6 | B1
12 | B2
0 | B3
157 | B4
0 | B5
0 | B6

biological target: T17, Cdc25, P04821; experiment: SPOT array; conditions: median of control spots 969

SPOT intensity | Binder
3 | B1
3 | B2
2 | B3
203 | B4
0 | B5
0 | B6

biological target: T18, Lsb4, P32793; experiment: SPOT array; conditions: median of control spots 397

SPOT intensity | Binder
2 | B1
0 | B2
36 | B3
141 | B4
0 | B5
13 | B6

biological target: T19, Bzz1-1, P38822; experiment: SPOT array; conditions: median of control spots 4446

SPOT intensity | Binder
0 | B1
0 | B2
3 | B3
22 | B4
0 | B5
0 | B6

biological target: T20, Hof1, Q05080; experiment: SPOT array; conditions: median of control spots 4086

SPOT intensity | Binder
0 | B1
4 | B2
16 | B3
28 | B4
0 | B5
0 | B6

biological target: T21, Boi1, P38041; experiment: SPOT array; conditions: median of control spots 1162

SPOT intensity | Binder
0 | B1
0 | B2
0 | B3
15 | B4
0 | B5
0 | B6

biological target: Rvs167, P39743; experiment: SPOT array; conditions: median of control spots 2707
Sequence (P39743 419-482): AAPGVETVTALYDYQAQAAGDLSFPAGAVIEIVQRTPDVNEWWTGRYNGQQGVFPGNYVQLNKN

SPOT intensity | Binder
4 | B1
0 | B2
0 | B3
18 | B4
0 | B5
4 | B6

biological target: Bem1-1, P29366; experiment: SPOT array; conditions: median of control spots 4282
Sequence (P29366 55-141): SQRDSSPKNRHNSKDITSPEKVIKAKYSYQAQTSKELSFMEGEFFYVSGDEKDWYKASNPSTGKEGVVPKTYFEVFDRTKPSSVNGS

SPOT intensity | Binder
0 | B1
1 | B2
0 | B3
0 | B4
0 | B5
1 | B6

Reference: paper PMC2756588
